The target in test [1] is Herceptin antibody labelled with biotin. The test can be described thus: mass photometry; first 500 s after 25 mM free biotin, compared with the PBS control.
Test [2] has the same target. Nature of the test: mass photometry; consecutive measurement with 25 mM free biotin, compared with the PBS control.
The target is the same in test [3]. The test can be described thus: mass photometry; control with PBS as release agent, streptavidin-coated coverslip loaded with Herc-B.
Test [4] has the same target. Nature of the test: mass photometry; first 500 s after 25 mM free biotin, release of Herc-B from immobilised streptavidin.
Test [5] has the same target. Nature of the test: mass photometry; consecutive measurement with 25 mM free biotin, release of Herc-B from immobilised streptavidin.

With “streptavidin (from UniProt P22629 37-163)”, the figures for the Percentage increase to control in test [1] and in test [2] were 90.5% and 79.8%, respectively. In addition, the results for the Difference UB - B in test [3], in test [4] and in test [5] were 17 counts, 179 counts and 84 counts, respectively. Moreover, the Unbinding (UB) events, MW 76 to 273 kDa in test [3] was 161 counts; in test [4], 460 counts; in test [5], 565 counts.

(Values after patent US20240125796A1.)
